In article PMC11754596:

Biological target: p53 (UniProt P04637)
Assay: anti-Flag IP, anti-HA blot
Conditions: reference: HA-STAT1 wild type; sites Y701

## STAT1 (from UniProt P42224) HA-STAT1-Y701F
  binding against the reference: weaker
